Reference: patent US20140162960

How the values were obtained:
[1] = target: myc-tagged mutant IQGAP1 WW domain expressed from lentivirus (pLEX-mycYY)
[2] = target: T1, myc-tagged IQGAP1 WW domain expressed from lentivirus (pLEX-mycWW)
T1 chain: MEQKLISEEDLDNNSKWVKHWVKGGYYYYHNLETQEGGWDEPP

B1: ERK1 (extracellular signal-regulated kinase 1), endogenous (protein)
chain: AAAAAQGGGGGEPRRTEGVGPGVPGEVEMVKGQPFDVGPRYTQLQYIGEGAYGMVSSAYDHVRKTRVAIKKISPFEHQTYCQRTLREIQILLRFRHENVIGIRDILRASTLEAMRDVYIVQDLMETDLYKLLKSQQLSNDHICYFLYQILRGLKYIHSANVLHRDLKPSNLLINTTCDLKICDFGLARIADPEHDHTGFLTEYVATRWYRAPEIMLNSKGYTKSIDIWSVGCILAEMLSNRPIFPGKHYLDQLNHILGILGSPSQEDLNCIINMKARNYLQSLPSKTKVAWAKLFPKSDSKALDLLDRMLTFNPNKRITVEEALAHPYLEQYYDPTDEPVAEEPFTFAMELDDLPKERLKELIFQETARFQPGVLEAP
phosphorylated ERK levels (immunoblot) [1]: Primary normal human keratinocytes infected with this WW domain mutant had normal levels of phosphorylated ERK | pELK1 levels in IP-kinase assay (pERK immunoprecipitate, ELK-1 substrate) [2]: revealed diminished downstream pELK1 levels as compared to control treated cells | phosphorylated ERK levels (tissue stain and immunoblot) [2]: WW domain expressing tissue also showed diminished phosphorylated ERK without an effect on total ERK levels
